Results as given in paper PMC10370059 (bioRxiv, 2023).
Each block holds one molecule with its values, some of them ahead of it.

Experiments:
[1] = biological target: biotinylated Arr3_ΔC loaded with IP6 (bovine) (UniProt P32120); assay: SEC
[2] = biological target: biotinylated Arr3_ΔC loaded with IP6 (bovine, UniProt P32120, biotin (sulfo-NHS-Biotin, >95% biotinylated)); assay: ELISA
[3] = biological target: Arr3_ΔC (preactivated arrestin3, truncated after residue 392) (bovine, UniProt P32120); assay: pull-down

stoichiometry N [1]: 3
Molecule: biotinylated Arr3_ΔC loaded with IP6 (from UniProt P32120 1-392) (domain or fragment)

binding result [2]: binds
binding result [3]: binds
B1: Fab7 (Fab, V domains shown)
VH: EVQLVESGGGLVQPGGSLRLSCAASGFNVSSSYIHWVRQAPGKGLEWVASISSYYGYTYYADSVKGRFTISADTSKNTAYLQMNSLRAEDTAVYYCARKSMYHRGWGWLSWVYGAMDYWGQGTLVTVSS
VL: DIQMTQSPSSLSASVGDRVTITCRASQSVSSAVAWYQQKPGKAPKLLIYSASSLYSGVPSRFSGSRSGTDFTLTISSLQPEDFATYYCQQSYYYPITFGQGTKVEIK
